Test results as given in paper PMC4890791.

Tests used:
Test in all cases: EMSA
Settings in all cases: EMSA: 10 mM NaCl, 0.1 mM DTT, 0.1 mM EDTA, 10 mM Tris pH 7.4, 25 C 30 min (22-42 C series in Fig 5C), 20 ng Cy5 probe, poly(dI:dC); footprinting: 400 ng FAM …
[1] = system: RpoE (sigma E) (Vibrio alginolyticus (EPGS))
[2] = target: T1, RpoE (sigma E) (Vibrio alginolyticus (EPGS)) (UniProt A0A0H0YA85)
T1 sequence: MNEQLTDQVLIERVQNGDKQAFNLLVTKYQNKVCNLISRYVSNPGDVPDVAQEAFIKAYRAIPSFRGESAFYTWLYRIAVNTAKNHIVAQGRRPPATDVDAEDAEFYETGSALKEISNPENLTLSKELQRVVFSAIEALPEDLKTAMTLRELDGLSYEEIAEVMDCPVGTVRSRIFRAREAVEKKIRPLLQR

[3] = system: T2, AphA (Vibrio alginolyticus (EPGS)), ORF:ebbe691c
T2 sequence: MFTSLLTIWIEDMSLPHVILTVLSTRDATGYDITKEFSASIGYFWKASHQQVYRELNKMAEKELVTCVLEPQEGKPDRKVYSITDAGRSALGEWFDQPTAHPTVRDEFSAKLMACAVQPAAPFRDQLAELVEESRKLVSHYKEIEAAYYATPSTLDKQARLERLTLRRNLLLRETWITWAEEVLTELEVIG

Substance | Kd [1] [nM] | Kd [2] [nM] | binding [2] | binding [3]
PrpoH | 75 | – | – | –
AAGATGCTCGCTTGTCAAACTTAGACTAAAGTCAGGCAGCGGTGGTCATTTGGGTACAGACATCACACTGTGAAAAAACAATGACAAAAAACTTGAGAAACCATGGAACTTTCTCATTCACGTTAGGGTCACAATAGTGCTCAAGTAAGCAGTGGTGTCAATACTACGTTTTGCATAATTAGTACCCATATCTGAGAAGAGTAGGGGCATAACAAATAGGAGTATCCGCTCGAATG (double strand) [PrpoE] | – | 76 | binds | –
PrpoE | 76 | – | – | –
PluxR | 83 | – | – | –
AGTCGCACGCAAACGATCACCTAATCTTACGGCGTGTAGTGTATCACCACGTTCATTGGGTTGAAAGTCGCATCCTGTTGCCAAAAAATCTTGGAAGAAGGTCTTAGTTTTATAAAGTTCATAGCTAAATTTATCAATAATAATGACATTACTGTATATAAATTGTTCTACAGATGTTGACCTTGTGCATATGCACCATTACACTCATCACTGCTTTAAGCAACTATTAAAATAATCAATTAGGGGGTTACCCCCAATATCAACTCAAATGGCAAGGAAAATGGAT (double strand) [PluxR] | – | 83 | binds | binds
